Here are results for eight molecules from patent US20180282402A1.

Where only a bound is given, the exact number is not on record here.

The assay concerns the target Cyno HARS (cynomolgus monkey (Macaca fascicularis)). As to the kind of experiment: SPR (ProteOn); HRS protein immobilized, antibody as analyte.

B1: KL31-241 (antibody, V domains shown)
VH: QVQLVQSGAEVKKPGASVKVSCKASGYTFTDYCIGWIRQAPGQGLEWMGDICPGDAYTNDNEKFKDRATMTADTSTSTAYMELSSLRSEDTAVYYCARGEEQLGLRNAMDYWGQGTSVTVSS
VL: DIVMTQSPDSLAVSLGERATINCQSQSVSTSTYNYMHWYQQKPGQPPKLLIKYASNLESGVPDRFSGSGSGTDFTLTISSLQAEDVATYYCQHSWEIPWTFGGGTKLEIK
Regarding B1, the Kd came to 1.2 nM.

B2: KL31-532 (antibody, V domains shown)
VH: QVQLVQSGAEVKKPGASVKVSCKASGYTFTDYCIGWIRQAPGQGLEWMGDICPGDTYTNDNEKFKDRATMTADTSTSTAYMELSSLRSEDTAVYYCARGEEQLGLRNAMDYWGQGTLVTVSS
VL: DIVMTQSPDSLAVSLGERATINCQSQSVSTSTYNYMHWYQQKPGQPPKLLIKYASNLESGVPDRFSGSGSGTDFTLTISSLQAEDVATYYCGHSYEIPWTFGGGTKVEIK
B2 gave a Kd of 0.056 nM.

B3: AB04-439 (antibody, V domains shown)
VH: QVQLVESGGGLVKPGGSLRLSCAASGFTFSDYYMTWIRQAPGKGLEWVSYISGSFRYTNYADSVKGRFTISRDNAKNSLYLQMNSLRDEDTAVYFCARYVYQVVAIGDLWGQGTLVTVSS
VL: DIQMTQSPSSVSASVGDRVTITCRASQGISSWLAWYQQKPGRAPKLLIFAASSLQSGVPSRFSGSGSGTHFTLTISSLQPEDFATYYCQQAESFPYTFGQGTKLEIK
Consider B3, for which the Kd was found to be 0.075 nM.

B4: AB13-433 (antibody, V domains shown)
VH: QVQLVESGGGLVKPGGSLRLSCAASGFTFSDYYMSWIRQAPGKGLEWVSYISDSSTYTNYTDSVRGRFTISRDNAKNSLYLQMNSLRAEDTAVYYCARYLYQVIAVADSWGQGTLVTVSS
VL: DIQMTQSPSSVSASVGDRVTITCRASQGISSWLAWFQQKPGKAPKLLIYVASNLESGVPSRFSGSGSGTDFTLTISSLQPEDFATYYCQQANSFPYTFGQGTKLEIK
B4 showed a Kd of 0.24 nM.

B5: AB13-288 (IgG4-2 kappa) (antibody, V domains shown)
VH: QVQLVESGGGLVKPGGSLRLSCAASGFTFSDYYMSWIRQAPGKGLEWVSYISDKSRYTKYTDKVRGRFTISRDNAKNSLYLQMNSLRAEDTAVYYCARYLYQVIAIADAWGQGTLVTVSS
VL: DIQMTQSPSSVSASVGDRVTITCRASQGISSWLAWFQQKPGKAPKLLIFVASNLESGVPSRFSGSGSGTDFTLTISSLQPEDFATYYCQQAESFPYTFGQGTKLEIK
Take B5: the Kd came out at 0.028 nM.

B6: AB13-112 (IgG1m(za) kappa) (antibody, V domains shown)
VH: QVQLVESGGGLVKPGGSLRLSCAASGFTFSDYYMSWIRQAPGKGLEWVSYISDKSRYTKYTDKVRGRFTISRDNAKNSLYLQMNSLRAEDTAVYYCARYLYQVIAIADAWGQGTLVTVSS
VL: DIQMTQSPSSVSASVGDRVTITCRASQGISSWLAWFQQKPGKAPKLLIFVASNLESGVPSRFSGSGSGTDFTLTISSLQPEDFATYYCQQAESFPYTFGQGTKLEIK
Turning to B6, the equilibrium dissociation constant (Kd) was less than 0.001 nM.

B7: AB13-288 (IgG1m(zf) kappa) (antibody, V domains shown)
VH: QVQLVESGGGLVKPGGSLRLSCAASGFTFSDYYMSWIRQAPGKGLEWVSYISDKSRYTKYTDKVRGRFTISRDNAKNSLYLQMNSLRAEDTAVYYCARYLYQVIAIADAWGQGTLVTVSS
VL: DIQMTQSPSSVSASVGDRVTITCRASQGISSWLAWFQQKPGKAPKLLIFVASNLESGVPSRFSGSGSGTDFTLTISSLQPEDFATYYCQQAESFPYTFGQGTKLEIK
In turn, B7 yielded a Kd of 0.002 nM.

B8: AB13-112 (IgG4 kappa) (antibody, V domains shown)
VH: QVQLVESGGGLVKPGGSLRLSCAASGFTFSDYYMSWIRQAPGKGLEWVSYISDKSRYTKYTDKVRGRFTISRDNAKNSLYLQMNSLRAEDTAVYYCARYLYQVIAIADAWGQGTLVTVSS
VL: DIQMTQSPSSVSASVGDRVTITCRASQGISSWLAWFQQKPGKAPKLLIFVASNLESGVPSRFSGSGSGTDFTLTISSLQPEDFATYYCQQAESFPYTFGQGTKLEIK
In turn, B8 yielded a Kd of less than 0.001 nM.
